The target in test [1] is T1, Human GUCY2C ECD (his-tagged human GUCY2C protein extracellular domain fusion protein) (human, UniProt P25092 24-430).
T1 construct: also called human GUCY2C-his; human GUCY2C-His
Description: SPR Biacore, antibody on Protein A, antigen injected. As to the method:
The strength of antibody-antigen binding was assayed with a BIAcore 8K instrument using a Protein A capture method. First, Protein A was immobilized onto a CM4 chip (purchased from GE, BR-1005-34) using an amino coupling method. According to the instruction of the Amine Coupling Kit (purchased from GE, BR100633), NHS and EDC were mixed with HBS-EP+pH 7.4 as a mobile phase to activate the chip for about 600 s; the Protein A was diluted to 50 μg/mL with 10 mM sodium acetate (pH 4.5) and injected for 600 s, and finally, the remaining activated sites were blocked with ethanolamine. Then, the affinity of the antibody for the antigen was assayed using a multi-cycle kinetic method; in each cycle, first, the antibody to be tested was captured using the Protein A chip, and then a single concentration of antigen protein was injected. The association and dissociation processes of the antibody with the antigen protein were recorded, and finally, the chip was regenerated using Glycine pH 1.5, wherein the mobile phase was HBS-EP+(10 mM HEPES, 150 mM NaCl, 3 mM EDTA, 0.05% surfactant P20), the flow rate was 30 μL/min, the regeneration time was 30 s, and the assay temperature was 25° C. Finally, according to a 1:1 binding model, the data were analyzed, and the antibody-antigen binding kinetics parameters, including the association rate constant Ka, the dissociation rate constant Kd, the equilibrium dissociation constant KD, and the maximum binding signal Rmax, were fitted.
(§1) After the finally obtained various humanized antibodies were expressed and purified, the affinities of the humanized antibodies for the human and monkey GUCY2C proteins were separately assayed according to the method in Example 4.6.
(In general: Surface plasmon resonance follows binding to a sensor surface in real time, without labels.)

Test [2] deals with T1, Human GUCY2C ECD (his-tagged human …). Description: ELISA, plate coated with human GUCY2C-his, OD450. As to the method: To assay the binding activity of the humanized antibodies to human GUCY2C-his protein, a human GUCY2C-his protein was diluted with PBS to a final concentration of 2 μg/mL and then added to a 96-well ELISA plate at 50 μL/well. The plate was sealed with a plastic film and incubated at 4° C. overnight. The next day, the plate was washed 2 times with PBST, and a blocking buffer [PBS+2% (w/w) BSA] was added for blocking at room temperature for 2 h. The blocking buffer was discarded, and the plate was washed 2 times with PBST. An antibody to be tested or a control antibody diluted in a 1:3 gradient from a starting concentration of 100 nM was added at 50 μL/well. After incubation at 37° C. for 1 h, the plate was washed 3 times with PBST. A horseradish peroxidase (HRP)—labeled secondary antibody (purchased from Merck, Cat. No. AP113P) was added for incubation at 37° C. for 1 h, and the plate was washed 5 times with PBST. A TMB substrate was added at 50 µL/well for incubation at room temperature for 5-10 min, and then a stop solution (1.0 M HCl) was added at 50 μL/well. OD450 nm values were read using an ELISA plate reader (Multimode Plate Reader, EnSight, purchased from Perkin Elmer).
A general note: In an ELISA, binding on a coated surface is turned into a signal by an enzyme label.

Test [3] concerns the target T2, Cyno GUCY2C ECD (his-tagged cynomolgus monkey GUCY2C protein extracellular domain fusion protein) (cynomolgus monkey, UniProt P25092 24-430 (human entry)).
T2 construct: also called monkey GUCY2C-his; monkey GUCY2C-His
T2 chain: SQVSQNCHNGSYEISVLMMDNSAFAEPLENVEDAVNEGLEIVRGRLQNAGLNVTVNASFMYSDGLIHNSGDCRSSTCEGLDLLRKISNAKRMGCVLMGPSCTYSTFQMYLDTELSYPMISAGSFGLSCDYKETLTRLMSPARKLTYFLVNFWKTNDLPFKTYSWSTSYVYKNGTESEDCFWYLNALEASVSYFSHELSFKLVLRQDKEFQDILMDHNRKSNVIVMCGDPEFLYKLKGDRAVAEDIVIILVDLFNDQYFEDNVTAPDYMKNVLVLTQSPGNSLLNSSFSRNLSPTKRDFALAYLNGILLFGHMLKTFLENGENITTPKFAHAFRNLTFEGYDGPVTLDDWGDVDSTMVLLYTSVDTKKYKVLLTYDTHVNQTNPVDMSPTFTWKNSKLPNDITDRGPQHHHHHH
Description: ELISA, plate coated with monkey GUCY2C-his, OD450.

For test [4], the target named is T1, Human GUCY2C ECD (his-tagged human …). Description: BLI Gator, antibody on anti-human Fc probe, antigen in solution. As for the experimental part: (§2) Next, we measured the affinity of the recombinant antibody by another method, and the specific procedures were as follows: the binding strength of the antibody to the antigen was assayed by acquiring and analyzing the signal change of the reflection interference spectrum on the surface of the optical probe by using thin film interference technology. First, the probe was equilibrated for 300 s with HBS-T+pH 7.4 (0.02% tween) as the mobile phase. 2 μg/mL of the antibody to be tested was captured by an anti-human FC probe (purchased from ProbeLife, PL168-160003) for 240 s, and then antigen proteins with the concentration of 200 nM and diluted two-fold were injected. Kon for 300 s and Koff for 600 s. The association and dissociation processes of the antibody with the antigen protein were recorded, and finally, the chip was regenerated using Glycine pH 2.0 (purchased from GE), wherein the mobile phase was HBS-T+pH 7.4 (0.02% tween), the regeneration time was 5 s, and the assay temperature was 30° C. Finally, according to a 1:1 binding model, the data were analyzed, and the antibody-antigen binding kinetics parameters, including the association rate constant Ka, the dissociation rate constant Kd, the equilibrium dissociation constant KD, and the maximum binding signal Rmax, were fitted. The association rate (Ka), dissociation rate (Kd), and binding affinity (KD) of the recombinant antibodies with the human GUCY2C and monkey GUCY2C proteins are shown in Table 6.

Test [5] addresses T2, Cyno GUCY2C ECD (his-tagged cynomolgus …). The test is described as above. As for the experimental part:
as §2

Test [6] addresses T1, Human GUCY2C ECD (his-tagged human …). Described as above. As for the experimental part: as §2, §1
This is another data set of the same source.

T1 sequence (P25092 other isoform, or with tags, fused parts or gaps): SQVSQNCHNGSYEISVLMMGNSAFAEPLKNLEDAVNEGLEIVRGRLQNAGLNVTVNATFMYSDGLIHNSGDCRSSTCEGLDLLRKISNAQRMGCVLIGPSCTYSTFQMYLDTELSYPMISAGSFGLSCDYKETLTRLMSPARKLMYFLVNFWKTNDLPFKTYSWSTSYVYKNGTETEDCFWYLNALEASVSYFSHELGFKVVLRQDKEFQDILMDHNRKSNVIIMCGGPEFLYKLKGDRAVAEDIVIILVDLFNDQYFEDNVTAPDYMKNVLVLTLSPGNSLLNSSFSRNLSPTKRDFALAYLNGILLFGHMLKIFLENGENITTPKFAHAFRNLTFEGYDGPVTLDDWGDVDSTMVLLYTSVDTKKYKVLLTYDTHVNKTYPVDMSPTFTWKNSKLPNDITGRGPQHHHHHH

B1: PF1608-hIgG1 (antibody, V domains shown)
VH: EVQLVESGGGLVQPGGSLRLSCAASGFTFSSYWMHWVRQAPGKGLEWIGEIKPSNELTNVHEKFKDRFTISVDKAKNSAYLQMNSLRAEDTAVYYCTRTITTTEGYWFFDVWGQGTLVTVSS
VL: DIQLTQSPSSLSASVGDRVTITCRASESVDYYGSSLLQWYQQKPGKAPKLLIYAASKLASGVPSRFSGSGSGTDFTLTISSLQPEDFATYYCQQTRKAYTFGQGTKLEIKR
notes: also called PF1608-hlgG1; positive control antibody
The term Kd denotes the free concentration of one partner at which half of the binding sites on the other are occupied at equilibrium, for simple one-to-one binding. For orientation: koff means a measure of how fast the partners let go of each other. Broadly, the kon is the second-order rate constant of association. By EC50 (read off the curve) is commonly meant the concentration at which the effect is half-maximal. B1: the Kd in test [1] stood at 1.63 nM; in test [4], 0.494 nM; in test [5] it was 0.256 nM; in test [6], 0.494 nM. The koff in test [1] worked out at 0.000258 s⁻¹; in test [4], 0.000197 s⁻¹; in test [5] it was 0.000138 s⁻¹; in test [6], 0.000197 s⁻¹. In addition, the kon stood at 158000 M⁻¹ s⁻¹ in test [1], 400000 M⁻¹ s⁻¹ in test [4], 540000 M⁻¹ s⁻¹ in test [5] and 400000 M⁻¹ s⁻¹ in test [6]. In addition, the “EC50 (read off the curve)” value was about 0.05 nM in test [2] and about 0.06 nM in test [3].

B2: 5F9-hIgG1 (antibody, V domains shown)
VH: QVQLQQWGAGLLKPSETLSLTCAVFGGSFSGYYWSWIRQPPGKGLEWIGEINHRGNTNDNPSLKSRVTISVDTSKNQFALKLSSVTAADTAVYYCARERGYTYGNFDHWGQGTLVTVSS
VL: EIVMTQSPATLSVSPGERATLSCRASQSVSRNLAWYQQKPGQAPRLLIYGASTRATGIPARFSGSGSGTEFTLTIGSLQSEDFAVYYCQQYKTWPRTFGQGTNVEIKR
notes: also called positive control antibody
On to B2, for which the Kd in test [1] came to 4.05 nM; in test [4], 1.14 nM; in test [5], 0.998 nM; in test [6], 1.14 nM. The koff in test [1] stood at 0.000565 s⁻¹; in test [4], 0.000448 s⁻¹; in test [5], 0.000486 s⁻¹; in test [6], 0.000448 s⁻¹. The kon in test [1] turned out to be 140000 M⁻¹ s⁻¹; in test [4], 391000 M⁻¹ s⁻¹; in test [5] it was 487000 M⁻¹ s⁻¹; in test [6], 391000 M⁻¹ s⁻¹. The “EC50 (read off the curve)” value in test [2] and in test [3] was about 0.04 nM in each case.

Values taken from patent publication US20250075006A1 (SHANDONG SIMCERE BIOPHARMACEUTICAL, published 2025).
